Source: article PMC4055269 (Molecular Biology of the Cell, 2014)

Target: the molecule itself
Experiment: SEC-MALS

B1: Drp1 C505A (enzyme, human, UniProt O00429-4 1-699, looked up)
chain: MEALIPVINKLQDVFNTVGADIIQLPQIVVVGTQSSGKSSVLESLVGRDLLPRGTGIVTRRPLILQLVHVSQEDKRKTTGEENGVEAEEWGKFLHTKNKLYTDFDEIRQEIENETERISGNNKGVSPEPIHLKIFSPNVVNLTLVDLPGMTKVPVGDQPKDIELQIRELILRFISNPNSIILAVTAANTDMATSEALKISREVDPDGRRTLAVITKLDLMDAGTDAMDVLMGRVIPVKLGIIGVVNRSQLDINNKKSVTDSIRDEYAFLQKKYPSLANRNGTKYLARTLNRLLMHHIRDCLPELKTRINVLAAQYQSLLNSYGEPVDDKSATLLQLITKFATEYCNTIEGTAKYIETSELCGGARICYIFHETFGRTLESVDPLGGLNTIDILTAIRNATGPRPALFVPEVSFELLVKRQIKRLEEPSLRCVELVHEEMQRIIQHCSNYSTQELLRFPKLHDAIVEVVTCLLRKRLPVTNEMVHNLVAIELAYINTKHPDFADAAGLMNNNIEEQRRNRLARELPSAVSRDKVASGGGGVGDGVQEPTTGNWRGMLKTSKAEELLAEEKSKPIPIMPASPQKGHAVNLLDVPVPVARKLSAREQRDCEVIERLIKSYFLIVRKNIQDSVPKAVMHFLVNHVKDTLQSELVGQLYKSSLLDDLLTESEDMAQRRKEAADMLKALQGASQIIAEIRETHLW
  stoichiometry N: 2
